B1: HCV IRES domains III-IV (131-388) (structured_RNA)
RNA: GGGAGAGCCAUAGUGGUCUGCGGAACCGGUGAGUACACCGGAAUUGCCAGGACGACCGGGUCCUUUCUUGGAUCAACCCGCUCAAUGCCUGGAGAUUUGGGCGUGCCCCCGCGAGACUGCUAGCCGAGUAGUGUUGGGUCGCGAAAGGCCUUGUGGUACUGCCUGAUAGGGUGCUUGCGAGUGCCCCGGGAGGUCUCGUAGACCGUGCACCAUGAGCACGAAUCCUAAACCUCAAAGAAAAACCAAAGGGCGCGCCGC
B2: HCV IRES domain II (39-119) (structured_RNA)
RNA: GGACUCCCCUGUGAGGAACUACUGUCUUCACGCAGAAAGCGUCUAGCCAUGGCGUUAGUAUGAGUGUCGUGCAGCCUCCAGGA

Assays:
PKR dsRBD (p20) [1] = target: T1, PKR dsRBD (p20) (UniProt P19525 1-184); assay: EMSA
PKR dsRBD (p20) [2] = target: T1, PKR dsRBD (p20); assay: nuclease footprinting

T1 sequence (P19525 1-184): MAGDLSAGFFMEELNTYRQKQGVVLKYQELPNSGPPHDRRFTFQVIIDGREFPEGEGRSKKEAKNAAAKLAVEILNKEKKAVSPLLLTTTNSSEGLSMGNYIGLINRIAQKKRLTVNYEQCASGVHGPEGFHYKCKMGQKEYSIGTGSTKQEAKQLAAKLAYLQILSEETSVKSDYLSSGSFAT

Row | Binder | binding result (PKR dsRBD (p20) [1]) | binding result (PKR dsRBD (p20) [2])
1 | B1 | binds | –
2 | B2 | – | binds
